A word on the IC50: it is the concentration needed to halve the response being measured.

Several values for one entry are separate records, joined by “and”; a condition that tells them apart may be missing. Identical values can stand only once. Entries after “also recorded” stand apart in the source; their conditions may differ. Residues, ends and D or L forms follow the SMILES beside them. *: point of attachment. HYNIC = NNc1ccc(C(=O)*)cn1

Three compounds from paper PMC5030711, “Investigation of SP94 Peptide as a Specific Probe for Hepatocellular Carcinoma Imaging and Therapy” (Scientific Reports, 2016) can be followed below.

The test system of one series is Huh-7 cells. It counts as binding, human. The note with it: 2 h. The protocol:
The binding affinity of HYNIC-SP94 was assessed via a competitive displacement assay with ^99mTc tricine-EDDA/HYNIC-SP94[35]. Briefly, Huh-7 cells (1 × 10^6) and ^99mTc tricine-EDDA/HYNIC-SP94 (370 kBq) were added to each test tube in the presence of increasing concentrations of the SP94 peptide (from 0.001 nM to 10000 nM) and incubated for 2 h at 37 °C. To remove unbound ^99mTc tricine-EDDA/HYNIC-SP94, the cells were washed three times with cold PBS (1×, pH 7.2) and then centrifuged (600 rpm, 5 min). Radioactivity was determined using a γ-counter. The IC50 value was calculated by fitting experimental data with nonlinear regression using GraphPad Prism (GraphPad Software, San Diego, CA, USA).

A short description of series [1]: In vivo stability (RP-HPLC of plasma). Also noted: species or system balb/c mice. The following applies: within 60 min after tail vein injection (~30 MBq/mouse). As to the method: The in vivo stability of ^99mTc tricine-EDDA/HYNIC-SP94 was evaluated in balb/c mice. ^99mTc tricine-EDDA/HYNIC-SP94 (~30 MBq/mouse) in 0.1 mL of saline was injected via the tail vein. Blood was then taken from the heart 10, 30, 60, 120 and 240 min after injection under anesthesia. Blood was collected in a heparin tube and immediately centrifuged (5000 rpm, 5 min) to obtain plasma. A total of 400 μL methanol/trichloromethane (V/V: 4/1) was added to 400 μL of plasma, fully mixed and centrifuged (5000 rpm, 5 min). RP-HPLC analysis was performed with 20 μL supernatant loading filtered by a 0.22 μm filter. The RP-HPLC was equipped with a Zorbax Eclipse XDB-C18 column (4.6 × 150 mm) and the following gradients were used at a flow rate of 1 mL/min: 98% solvent A (0.1% trifluoroacetic in 100% water) and 2% solvent B (0.09% trifluoroacetic in 80% ACN and 20% water): 0~5 min; 2% solvent A and 98% solvent B: 5~10 min; 98% solvent A and 2% solvent B: 10~15 min.

A short description of series [2]: In vitro stability of ^99mTc-labeled complexes (radio-TLC). It counts as in vitro ADME. The following applies: PBS, normal saline and FBS, 37 °C, 1-12 h. The protocol: The in vitro stability of the radiolabeled peptide was tested by incubating it in PBS, saline and FBS for 1, 2, 4, 6 and 12 h at 37 °C. After incubation, ^99mTc-labeled complexes were assessed by radio-TLC. Results were plotted as the RCP (%) at different time points.

A further series concerns Huh-7 tumor-bearing mice. Description: Biodistribution study. Format: in vivo, balb/c nude mice. The note with it: mean ± SD; for Tumor uptake: Huh-7 tumor; for Tumor/muscle: ratio. The text has this: Four- to six-week-old male athymic nude mice were used for preparation of the xenograft tumor models. Huh-7 and Hela cells were subcutaneously injected at a concentration of 5 × 10^6 cells/mouse in the right front flank of the mice. The mice were ready for biodistribution and microSPECT/CT imaging study when the tumors reached an average diameter of 0.8~1.0 cm (3~4 weeks after inoculation). Animal care and experimental procedures were accordant with the Helsinki Declaration and were approved by the institutional animal care committee.
Fifteen Huh-7 tumor-bearing mice were randomly divided into three groups. ^99mTc tricine-EDDA/HYNIC-SP94 (~0.74 MBq/mouse) in 0.1 mL of saline was injected via tail vein. At 0.5 and 1.5 h p.i., the mice were anesthetized via 2% isoflurane and sacrificed by cervical dislocation. Immediately after sacrifice, the blood, tumors and organs of interest (heart, lungs, liver, spleen, stomach, small intestine, large intestine, kidneys, muscle and thyroid) were harvested, washed with saline and weighed. Radioactivity was determined using a γ-counter. To determine the specific uptake of ^99mTc tricine-EDDA/HYNIC-SP94, 5 mice received an intravenous injection of 200 μg of unlabeled HYNIC-SP94 as a blocking agent 30 min prior to injection of ^99mTc tricine-EDDA/HYNIC-SP94 (~0.74 MBq/mouse). The mice were sacrificed 30 min p.i. and the experiments performed as described above. Absorption of organs and tissues was calculated as a percentage of the injected dose per gram of tissue mass (%ID/g).

Series [3] is described as follows: In vitro stability of ^188Re-HYNIC-SP94 (radio-TLC). Format: in vitro ADME. The note with it: FBS, room temperature, 48 h, mean ± SD. As to the method:
The in vitro stability of ^188Re-HYNIC-SP94 was evaluated by incubating ^188Re-HYNIC-SP94 in normal saline and FBS at room temperature. RCP was analyzed by radio-TLC at 1, 4, 8, 18, 26 and 48 h after incubation to determine the stability.

Setting [4] is: 0.5 h p.i., blocking: 200 μg unlabeled HYNIC-SP94 i.v. 30 min prior.

For the compound `CC[C@H](C)[C@H](NC(=O)[C@H](CO)NC(=O)[C@H](Cc1ccccc1)NC(=O)[C@H](CO)NC(=O)c1ccc(NN)nc1)C(=O)N[C@H](C(=O)N[C@@H](Cc1c[nH]cn1)C(=O)N[C@H](C(=O)N1CCC[C@H]1C(=O)N[C@H](C(=O)N[C@@H](CC(C)C)C(=O)N1CCC[C@H]1C(=O)N[C@@H](CC(C)C)C(=O)O)[C@@H](C)CC)[C@@H](C)O)[C@@H](C)CC` [HYNIC-SP94, 6-hydrazinonicotinic acid-SP94] ({HYNIC}-SFSIIHTPILPL-OH), 4.49 ± 0.2 nM corresponded to half-maximal inhibition with Huh-7 cells (IC50).

For `CC[C@H](C)[C@H](NC(=O)[C@H](CO)NC(=O)[C@H](Cc1ccccc1)NC(=O)[C@H](CO)NC(=O)c1ccc(NN)nc1)C(=O)N[C@H](C(=O)N[C@@H](Cc1c[nH]cn1)C(=O)N[C@H](C(=O)N1CCC[C@H]1C(=O)N[C@H](C(=O)N[C@@H](CC(C)C)C(=O)N1CCC[C@H]1C(=O)N[C@@H](CC(C)C)C(=O)O)[C@@H](C)CC)[C@@H](C)O)[C@@H](C)CC` [^99mTc tricine-EDDA/HYNIC-SP94, metal not drawn] ({HYNIC}-SFSIIHTPILPL-OH), the “radiochemical purity (RCP) maintained in vivo” value in series [1] was “about 66%”. In series [2], the “in vitro stability (RCP)” value was “highly stable; also recorded: slightly better”. Also, in the series with Huh-7 tumor-bearing mice (0.5 h p.i., blocking), the Blood uptake was 0.99 ± 0.12 %ID/g, the Kidney uptake was 7.58±2.25 %ID/g, the Large intestine uptake was determined as 0.54 ± 0.08 %ID/g and the Liver uptake came to 2.07 ± 0.20 %ID/g. In the series with Huh-7 tumor-bearing mice (0.5 h p.i., blocking), this compound registered a Lung uptake of 2.06 ± 0.18 %ID/g, a Muscle uptake of 0.23 ± 0.05 %ID/g, a Small intestine uptake of 0.78 ± 0.11 %ID/g and a Spleen uptake of 1.05 ± 0.27 %ID/g. In the series on Huh-7 tumor-bearing mice (0.5 h p.i., blocking), the Stomach uptake was found to be 0.84 ± 0.06 %ID/g, the Thyroid uptake amounted to 0.52 ± 0.04 %ID/g and the Tumor/muscle is on record as 1.56 ± 0.06. In addition, in the series with Huh-7 tumor-bearing mice (0.5 h p.i., non-blocking), the Blood uptake is on record as 1.17 ± 0.37 %ID/g, the Tumor uptake is 1.02 ± 0.26 %ID/g, the Kidney uptake was determined as 7.40 ± 2.66 %ID/g and the Large intestine uptake is reported as 0.70 ± 0.09 %ID/g. Also, in the series with Huh-7 tumor-bearing mice (0.5 h p.i., non-blocking), the Liver uptake is 2.39 ± 1.55 %ID/g, the Lung uptake is 2.10 ± 0.43 %ID/g, the Muscle uptake is 0.30 ± 0.05 %ID/g and the Small intestine uptake came out at 0.97 ± 0.22 %ID/g. For the same compound, in the series on Huh-7 tumor-bearing mice (0.5 h p.i., non-blocking), the Spleen uptake came out at 0.84 ± 0.30 %ID/g, the Stomach uptake is reported as 0.85 ± 0.18 %ID/g, the Thyroid uptake was 0.47 ± 0.09 %ID/g and the Tumor/muscle was 3.96 ± 0.06. In the series on Huh-7 tumor-bearing mice (1.5 h p.i., non-blocking), this compound had a Blood uptake of 0.49 ± 0.08 %ID/g, a Heart uptake of 0.34 ± 0.03 %ID/g, a Tumor uptake of 0.74 ± 0.07 %ID/g and a Kidney uptake of 6.14 ± 0.10 %ID/g. In the series with Huh-7 tumor-bearing mice (1.5 h p.i., non-blocking), the Large intestine uptake amounted to 0.48 ± 0.02 %ID/g, the Liver uptake is 1.98 ± 0.15 %ID/g, the Lung uptake turned out to be 1.45 ± 0.04 %ID/g and the Muscle uptake stood at 0.16 ± 0.02 %ID/g. In the series on Huh-7 tumor-bearing mice (1.5 h p.i., non-blocking), this compound showed a Small intestine uptake of 0.73 ± 0.07 %ID/g, a Spleen uptake of 0.67 ± 0.04 %ID/g, a Stomach uptake of 0.68 ± 0.09 %ID/g and a Thyroid uptake of 0.27 ± 0.03 %ID/g. Besides, the Tumor/muscle in the series with Huh-7 tumor-bearing mice (1.5 h p.i., non-blocking) is 4.55 ± 0.10. In the series on Huh-7 tumor-bearing mice (setting [4]), this compound came in with a Heart uptake of 0.58 ± 0.03 %ID/g and a Tumor uptake of 0.34 ± 0.09 %ID/g. This compound yielded a Heart uptake in the series on Huh-7 tumor-bearing mice (0.5 h p.i., non-blocking, i.v. ~0.74 MBq/mouse) of 0.54 ± 0.13 %ID/g.

In the case of `CC[C@H](C)[C@H](NC(=O)[C@H](CO)NC(=O)[C@H](Cc1ccccc1)NC(=O)[C@H](CO)NC(=O)c1ccc(NN)nc1)C(=O)N[C@H](C(=O)N[C@@H](Cc1c[nH]cn1)C(=O)N[C@H](C(=O)N1CCC[C@H]1C(=O)N[C@H](C(=O)N[C@@H](CC(C)C)C(=O)N1CCC[C@H]1C(=O)N[C@@H](CC(C)C)C(=O)O)[C@@H](C)CC)[C@@H](C)O)[C@@H](C)CC` [^188Re-HYNIC-SP94, metal not drawn] ({HYNIC}-SFSIIHTPILPL-OH), in series [3], the RCP after incubation is 91.67 ± 2.36% and > 90%.
